Assay results: the supplement of paper PMC10126150
± gives the standard deviation of the averaged measurements.

Tested on: ATP
Experiment: switch fluorescence ratio, 500 uM ATP over buffer (Cy3 cluster intensity, sum of 5 cycles each) (fold (ratio)); higher = stronger signal-on switching upon ATP binding; sequences stand for … in TCGTCGGCAGCGTCAGATGTGTATAAGAGACAGTTTTTTTTTTTTTTTTTTTTTTTTT…TC
Conditions: aptamer strand: ATP DNA aptamer (quencher-CACCTGGGGGAGTATTGCGGAGGAAGG + anchor), 100 nM annealed; ATP concentration: 500 uM
Summary of the method: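 The quencher-labelled ATP aptamer, at 100 nM, was annealed to Cy3-labelled switching-strand clusters on a modified Illumina MiSeq flow-cell. The clusters were imaged in selection buffer, then after 15 min with 500 uM ATP at 22 °C, and this buffer/ATP cycle ran five times with NaOH stripping and re-annealing between runs. Per-cluster fluorescence ratios, summed target-cycle over summed buffer-cycle Cy3 intensity, were averaged per switch-domain sequence. Clusters outside 100-1000 RFU were excluded.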
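Further: ATP exposure 15 min at 22 °C before imaging.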

Sequence	switch fluorescence ratio
GCTATTGGGA	1.01 ± 0.022
ATGTGGATGC	0.98 ± 0.045
GATATTCCTG	1 ± 0.03
TGTGGTGGCG	0.935 ± 0.018
TAGTTGAGCT	0.9997 ± 0.0061
ATGGATGCGT	0.967 ± 0.015
ACGTGAGTGT	0.977 ± 0.0076
TGGGGCACGG	1.09 ± 0.19
TGCCTTTTCG	1.02 ± 0.057
TGAGGCCCAG	1.01 ± 0.019
GAGCTATCAC	1.16 ± 0.035
TTTATGATGA	0.971 ± 0.016
TTAATAATGG	0.979 ± 0.026
GAACTGCGGA	1.01 ± 0.019
GGGGTTTCCG	0.9992 ± 0.0093
CGGTTATCCT	1.04 ± 0.032
CGATAGGGGG	1.01 ± 0.022
GGAATTAAAT	0.985 ± 0.027
TTTCATGTAT	1.01 ± 0.012
GGTAAAGATA	0.986 ± 0.019
ATTTATGCGG	0.985 ± 0.029
TAGTAGTGTG	0.9625 ± 0.001
ACGTATGTTG	1.022 ± 0.0017
CTAAGGCATG	1.05 ± 0.0013
GTTTTTGTGG	0.992 ± 0.01
AAGTTGGTTC	0.98 ± 0.052

Sequence	switch fluorescence ratio
ATCGATAGTG	1 ± 0.03
ACCTTAAAGA	0.9915 ± 0.005
GAGGCTTTTT	0.979 ± 0.024
ATCGAGGCAC	1.056 ± 0.0061
GACCTCACAT	1.18 ± 0.022
GGGGTTTGGT	0.984 ± 0.038
GAGAGTTTTC	0.985 ± 0.037
TTTAGATGGA	0.975 ± 0.021
TCGGAGCGGG	1.102 ± 0.0032
GATTGGTTGT	1.01 ± 0.022
AATTAGTGGG	0.995 ± 0.025
AATAAAAAGG	0.991 ± 0.019
CAGGTATATG	1.01 ± 0.017
ATCAGGCGTA	0.975 ± 0.038
CCGGTTAAGC	1.2 ± 0.057
GGAATGGTTT	0.987 ± 0.064
AAAGCGTGTG	1.01 ± 0.043
GGTTTGTGGG	0.968 ± 0.013
ATGGGTCTCT	0.997 ± 0.017
GCGCGCGATT	0.997 ± 0.025
CCAACGGGGG	1.061 ± 0.0019
AGGGTTGTTA	0.982 ± 0.027
TCGGGGTAAT	1.03 ± 0.019
TGTAGAGGGA	1.005 ± 0.0046
GGGGCACGCT	0.999 ± 0.03
TGTCGACTTG	0.9716 ± 0.0066

Sequence	switch fluorescence ratio
ACATTATATG	1.01 ± 0.043
TTCATATTGT	0.955 ± 0.024
CGTTGGACGG	1.03 ± 0.026
TTTGGCGTGC	1 ± 0.045
AAGTGGGTTT	1.02 ± 0.037
GAACATCGGC	1.036 ± 0.0022
TTTCTCTTAG	0.9889 ± 0.0072
GATCATAAAA	1.02 ± 0.017
TTAGTCGGGA	1.023 ± 0.0028
TGAGGAGGG	0.97516 ± 0.00046
CTATGGAAGG	0.98 ± 0.013
TGAGGAGGGA	0.987 ± 0.013
TGTGAAGGCG	1.71 ± 1
TCTCCAGGGG	2.3 ± 2.1
TGGCTGTACA	1.01 ± 0.025
GGGGTGTAAT	1.01 ± 0.021
AGTGTCCAGT	1 ± 0.028
AGAAAGTTAA	0.9856 ± 0.0047
TTGCGGTATG	0.986 ± 0.022
GACTCCTGAG	0.98 ± 0.033
GACCTTGATT	1.03 ± 0.029
GCCTGGTTTT	0.979 ± 0.024
GATAGAGTAG	1.016 ± 0.0019
TACTCGCCAT	1.13 ± 0.035
ATTTGCTTAG	0.994 ± 0.021
CGATAAAGAG	1.02 ± 0.013

Sequence	switch fluorescence ratio
GGTGATTATT	1.02 ± 0.029
AGTGGGGCGC	1.29 ± 0.4
CAATGAGGG	0.997 ± 0.022
GTTTTTCCCC	1.11 ± 0.14
TCGGGGCGGA	0.994 ± 0.038
AGTTGAAATA	0.9816 ± 0.0066
TTTAAGGTAT	0.957 ± 0.023
TAAACGAAGT	0.956 ± 0.054
AATAAGTTTT	0.969 ± 0.037
CGGCTTACTT	1.07 ± 0.011
GTTTCATATG	1.03 ± 0.047
TATTTTTTCT	0.994 ± 0.045
ATTTGCTATT	1.003 ± 0.0045
GCCTAAGTTT	0.986 ± 0.024
TATGAAAGGG	1.13 ± 0.16
TCGGAGGGGG	1.05 ± 0.2
TCGAGGGGAG	0.978 ± 0.016
ATATGGGTTA	0.9912 ± 0.001
GCACTCGGCT	0.991 ± 0.0047
CGGGCGGACA	0.974 ± 0.04
GATTGCCTGT	0.981 ± 0.029
GCATTGTTTG	0.995 ± 0.034
AGTTTTGGTG	0.985 ± 0.01
GCCCATAGAC	1.12 ± 0.041
ATGGGGTAAT	1.01 ± 0.028
GGGGATACCT	1.04 ± 0.023

Sequence	switch fluorescence ratio
CGTTGGGGG	0.963 ± 0.029
TGGTTCGTTA	1 ± 0.05
TATTGGAGGT	0.981 ± 0.021
CGTTGCGGGA	1.01 ± 0.045
TGATATATTT	1.02 ± 0.046
GGTAGAGTAC	1.02 ± 0.046
GACCCTGATC	1.17 ± 0.058
GGGCCTTGGT	0.987 ± 0.025
AAGCCCCTTG	0.992 ± 0.034
CGATAGCAGC	2.43 ± 0.52
TGCAGATTTT	0.994 ± 0.033
GCTTTTAGTG	1 ± 0.039
GGGAGGGAAG	1.03 ± 0.031
GAATTTGTTG	1.001 ± 0.0063
GTTGGAAGGT	1.02 ± 0.012
CTCAAAAGTA	1.09 ± 0.11
GGCCTCATGC	1.02 ± 0.017
AAGAGAGTAT	0.992 ± 0.0083
ATTATGGAAG	0.994 ± 0.018
GAATAGGGGA	1.02 ± 0.022
GCGGCGGCAG	0.9761 ± 0.0088
TCAGTAATAA	1.345 ± 0.013
GGGATTACCA	1 ± 0.056
TCCACATATC	1.5 ± 0.0073
TGGGTCAATA	1.03 ± 0.054
GAAGGGATTG	1.02 ± 0.041

Sequence	switch fluorescence ratio
AGGTAATACG	1.098 ± 0.0067
CGTTTGAGGA	1.01 ± 0.03
TGTGATTGTG	0.967 ± 0.015
ACATATATGA	1.06 ± 0.031
TTTCGGCTAT	1.12 ± 0.15
TTTTTCATTT	1.01 ± 0.023
ACGGGTAATT	1.02 ± 0.037
ATAACGGAGT	0.9902 ± 0.0087
TCAATTTTTT	0.993 ± 0.016
ACTTGTTCAT	1.01 ± 0.033
ATTCTTTGTT	0.962 ± 0.045
CGGGCTGTTG	0.963 ± 0.033
TTTGACGGTG	1.01 ± 0.034
CGTTAGGGGG	1.02 ± 0.041
CTGGTCACAG	1 ± 0.024
TTAGAAAACT	1 ± 0.012
TCTGGGAGGT	0.975 ± 0.02
TTTTCGTTGT	0.996 ± 0.018
GTCGCTAATG	0.996 ± 0.016
TGCACGATTG	1.03 ± 0.03
TAAGTATGTT	1.002 ± 0.0031
TAAGGAGGTG	1.033 ± 0.008
CATACTTTTT	1.02 ± 0.018
